For one test, the target named is T1, I-Au molecule (Mus musculus, UniProt P06344+P14438).
T1 sequence (P06344 whole entry, looked up): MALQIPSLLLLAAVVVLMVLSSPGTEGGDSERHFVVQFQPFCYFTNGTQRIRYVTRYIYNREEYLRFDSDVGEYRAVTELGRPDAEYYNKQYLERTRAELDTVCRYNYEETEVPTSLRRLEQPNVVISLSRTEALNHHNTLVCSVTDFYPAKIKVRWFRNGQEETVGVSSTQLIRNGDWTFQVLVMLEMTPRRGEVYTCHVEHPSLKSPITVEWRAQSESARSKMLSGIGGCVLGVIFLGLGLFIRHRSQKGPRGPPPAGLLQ
T1 sequence (P14438 whole entry, looked up): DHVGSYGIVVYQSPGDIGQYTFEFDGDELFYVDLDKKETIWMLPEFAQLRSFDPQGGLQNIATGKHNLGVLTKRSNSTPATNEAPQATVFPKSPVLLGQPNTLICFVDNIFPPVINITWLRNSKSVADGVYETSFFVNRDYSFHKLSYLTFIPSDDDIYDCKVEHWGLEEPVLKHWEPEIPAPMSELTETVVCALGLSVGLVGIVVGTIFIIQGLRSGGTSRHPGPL
Conditions: cited from earlier work.

The conditions of test [1]: cited from earlier work.
A further test has as its system A/J mice. The experiment in a line: Induction and quantitation of autoimmune myocarditis in A/J mice. It is filed as in vivo. Particulars: experiment 1; 100 μg myosin or 100 nmol peptide; H&E cross-sections, day 21.
The next test relates to Seu.5 T cells. In words: T cell hybridoma assay: IL-2 production by Seu.5 T cells. Conditions: APC pulsed with the peptide, tissue culture assay; data not shown. The test is classed as cell-based, A/J mice.
In test [2] the target is purified I-Ak molecules (mouse). The experiment in a line: radioligand binding.
In test [3] the target is I-Ak molecules on the surface of I-Ak-expressing M12.C3.F6 B-lymphoma cells (mouse). In words: SDS/PAGE stability assay.

Entries after “also recorded” stand apart in the source; their conditions may differ. Ends that are not written are not given here.

As for “MBP(Ac1-11): myelin basic protein epitope (Ac-MGNHSGKRELS; UniProt P04370 1-11, looked up, fragment)”, the “binding to I-Au” value in the test with I-Au molecule was “bound very weakly”. In test [1], the “induction of experimental autoimmune encephalomyelitis” value is “could strongly induce experimental autoimmune”.
For the molecule DSAFDVLSFTAEEKAGVYK [myhca(334-352)], the “severity of myocarditis in photomicrographs (Fig. 4 B)” value with A/J mice is “Moderate; also recorded: Severe”.
As for SAFDVLSFTAEEKA [myhc0~(335-348)], the “stimulation of Seu.5 T cells by peptide-pulsed APC” value with Seu.5 T cells is listed as “strongly stimulated”.

B1: bovine RNase(43-56) (peptide)
peptide: VNTFVHESLADVQA
In turn, B1 yielded a relative IC50 (relative to unlabeled HEL(YE52-61)) in test [2] of 33.3.

B2: myhc alpha(334-352) peptide, unlabeled (peptide)
peptide: DSAFDVLSFTAEEKAGVYK
In test [2], B2 returned a relative IC50 (relative to unlabeled HEL(YE52-61)) of 15.6.

B3: 125I-labeled HEL(YE52-61) (peptide)
peptide: YEDYGILQINSR
modifications: also: 125I-labeled, residue not given here
B3 had a maximum binding in the absence of competitors in test [2] of 148000 cpm.

B4: HEL(YE52-61), unlabeled (peptide)
peptide: YEDYGILQINSR
As for B4, the relative IC50 (relative to unlabeled HEL(YE52-61)) in test [2] is 1.

B5: 125I-labeled HEL(48-61) (peptide)
peptide: DGSTDYGILQINSR
modifications: also: 125I-labeled, residue not given here
In test [3], B5 displayed a percent SDS-stable I-Ak of 96%.

B6: myhc alpha(334-352) peptide, radiolabeled (peptide)
peptide: DSAFDVLSFTAEEKAGVYK
modifications: not fully specified; also: radiolabel on Tyr, isotope not given here
Regarding B6, the percent SDS-stable I-Ak in test [3] was determined as 50%.

The values above are taken from paper PMC2192215 (The Journal of Experimental Medicine, 1995).
